Measurements: publication PMC3115872, “Characterization of the expression, promoter activity and molecular architecture of fibin” (BMC Biochemistry, 2011)

Molecular target: the molecule itself
Experiment: non-reducing SDS-PAGE with Western blot; lysates of transfected COS-7 cells harvested after 72 h; equal amounts of protein separated by SDS-PAGE under non-reducing conditions; immunoblot with anti-fibin-2 antibody

B1: fibin (mouse), wild type (natural protein, UniProt Q9CQS3 19-217, looked up)
chain: YFDGPLYPEMSNGTLHHYFVPDGDYEENDDPEKCQLLFRVSDRRRCSQGEGGQASSLLSLTLREEFTVLGRQVEDAGRVLEGISKSISYDLDGEESYGKYLRRESHQIGDAYSNSDKSLTELESKFKQGQEQDSRQESRLNEDFLGMLVHTRSLLKETLDISVGLRDKYELLAHTIRSHGTRLGRLKSDYLEGGAQKTG
modifications: N-glycosylated at Asn30
notes: mouse fibin; also called WT fibin; wild-type fibin; source: COS-7, transfected (pcDps vector), in lysate
B1 was tested, and the “stoichiometry N” value was 2.
